The target of one data set is thrombin (UniProt P00734+P00734). The data set is described as follows: FP.
The target of a further data set is T1, FOXM1 (UniProt Q08050).
T1 sequence: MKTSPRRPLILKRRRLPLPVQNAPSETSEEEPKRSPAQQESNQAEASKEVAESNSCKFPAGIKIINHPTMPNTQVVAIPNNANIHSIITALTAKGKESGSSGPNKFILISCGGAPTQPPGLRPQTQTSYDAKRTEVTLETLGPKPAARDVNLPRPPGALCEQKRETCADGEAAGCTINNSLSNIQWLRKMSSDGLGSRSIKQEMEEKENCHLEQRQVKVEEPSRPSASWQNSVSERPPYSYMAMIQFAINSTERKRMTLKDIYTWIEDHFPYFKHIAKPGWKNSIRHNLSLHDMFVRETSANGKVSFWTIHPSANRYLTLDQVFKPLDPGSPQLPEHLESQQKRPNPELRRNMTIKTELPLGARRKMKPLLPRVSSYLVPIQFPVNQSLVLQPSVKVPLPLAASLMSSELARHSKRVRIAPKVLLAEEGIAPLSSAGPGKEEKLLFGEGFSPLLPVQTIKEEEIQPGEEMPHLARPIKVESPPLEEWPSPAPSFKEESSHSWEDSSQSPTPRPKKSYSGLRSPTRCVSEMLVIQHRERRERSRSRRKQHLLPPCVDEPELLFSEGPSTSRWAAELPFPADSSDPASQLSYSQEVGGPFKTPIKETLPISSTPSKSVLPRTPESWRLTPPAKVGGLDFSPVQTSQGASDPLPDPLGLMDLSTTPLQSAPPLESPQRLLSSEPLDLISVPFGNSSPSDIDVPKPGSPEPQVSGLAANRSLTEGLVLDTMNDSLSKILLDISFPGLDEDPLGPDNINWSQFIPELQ
Conditions: PS; cited from earlier work.

On to GGTTGGTGTGGTTGG [TBA(3)-2b], for which, in the data set with thrombin (T3 replaced by 5-ethynyl-dU clicked to inactivated N-acyl sulfonamide biotin warhead 2b), the Kd (usually the constant that tells how readily two partners part at equilibrium) came out at 395 nM.

Sequence GGTTGGTGTGGTTGG [TBA(9)-2b] showed a Kd in the data set with thrombin (T9 replaced by 5-ethynyl-dU clicked to inactivated N-acyl sulfonamide biotin warhead 2b) of 520 nM.

Turning to “TCACTTCACACCGCATCTCTACGTCCGGTTGCGCTTTCCTTT [FBA]”, the Kd with FOXM1 is 65 nM.

Source of the values: US20240255495.
